Among the data in US20040171585 are activity (fold activation) values, retold here.

The target of this data set is T1, HNF-4α (UniProt P41235).
T1 sequence: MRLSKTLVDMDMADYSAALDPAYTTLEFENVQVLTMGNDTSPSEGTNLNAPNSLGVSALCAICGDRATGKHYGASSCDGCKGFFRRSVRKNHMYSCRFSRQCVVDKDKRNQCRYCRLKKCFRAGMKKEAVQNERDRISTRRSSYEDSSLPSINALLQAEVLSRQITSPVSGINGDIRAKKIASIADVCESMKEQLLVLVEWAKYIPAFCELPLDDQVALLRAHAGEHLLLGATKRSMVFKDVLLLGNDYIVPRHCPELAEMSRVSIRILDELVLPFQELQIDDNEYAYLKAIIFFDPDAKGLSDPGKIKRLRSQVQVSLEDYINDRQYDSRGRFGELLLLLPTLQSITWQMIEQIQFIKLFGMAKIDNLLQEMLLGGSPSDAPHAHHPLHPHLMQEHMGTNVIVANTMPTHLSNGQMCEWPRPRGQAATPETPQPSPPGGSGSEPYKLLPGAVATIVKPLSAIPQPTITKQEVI
Put plainly: cell_activity. As to conditions: CAT reporter with TK promoter and one to three C3P copies, COS-7, no added fatty acids.

As to “GCAGGTGACCTTTGCCCAGCGCC (double strand) [C3P element of apo CIII promoter (-87/-66)]”, the activity (fold activation) turned out to be 7.
